B1: Pistol ribozyme (parent)
chain: GGGUCGUUGUUCCAUAAUCGCGUGGAUAUGGCACGCAAGUUUCUACCGGGCACCGUAAAUGUCCGACUGGAGCCGUUCGGGCGGCUAUAAACAGACCUCAGGCCCGAAGCGUGGCGGCACCUGCCGCCGGUGGUAAAAAAGAUCGGAAGAGCACACGUCU

Variants of: B1
Test: aptazyme ON/OFF ratio, guanine; higher = stronger switching; co-transcriptional cleavage with and without guanine

Row | Variant | aptazyme ON/OFF ratio
1 | U7G U8A U10A U11A | 2.2
2 | U7G U8A U10A U11G | 2.46
3 | U7G U8A U10A U11C | 0.988
4 | U7G U8A G9U U11G C13G | 1.02
5 | U7G U8A G9U U11G C13U | 1.07
6 | U7G U8A G9U U11G C13A | 1.07
7 | U7G U8A U10A U11G C12G C13U | 1.3
8 | U7G U8A U10A U11G C12G C13G | 1.11
9 | U7G U8A U10A U11G C12G C13A | 1.26
10 | U7G U8A G9U | 2.15
11 | U7G U8A G9U U10A U11G C12U C13U | 1.02
12 | U7G U8A G9U U10A U11G C12U C13G | 1.08
13 | U7G U8A G9U U10A U11G C12U C13A | 1.07
14 | U7G U8A G9U U10C U11G C12G C13G | 1.05
15 | U7G U8A G9U U10C U11G C12G C13U | 1.02
16 | U7G U8A G9U U10C U11G C12G C13A | 1.07
17 | U7G U8A G9U U11C C12U C13U | 1.02
18 | U7G U8A G9U U11C C12U C13G | 1.15
19 | U7G U8A G9U U11C C12U C13A | 1.1
20 | U7G U8A G9U U10G U11C C12U C13A | 1.07
21 | U7G U8A G9U U10G U11C C12U C13U | 1.08
22 | U7G U8A G9U U10G U11C C12U C13G | 1.17
23 | U7G U8A G9U U10C U11A C13G | 1.05
24 | U7G U8A G9U U10C U11A C13A | 1.1

Row | Variant | aptazyme ON/OFF ratio
25 | U7G U8A G9U U10C U11A C13U | 1.08
26 | U7G U8A G9C U11G C13G | 1.04
27 | U7G U8A G9C U11G C13A | 1.06
28 | U7G U8A G9C U11G C13U | 1.04
29 | U7G U8A G9U U10C U11C C13U | 1.01
30 | U7G U8A G9U U10C U11C C13A | 1.03
31 | U7G U8A G9U U10C U11C C13G | 1.02
32 | U7G U8A G9U U10C C13G | 1.06
33 | U7G U8A G9U U10C C13A | 1.11
34 | U7G U8A G9U U10C C13U | 1.38
35 | U7G U8A G9U U10G C12G C13U | 1.12
36 | U7G U8A G9U U10G C12G C13A | 1.05
37 | U7G U8A G9U U10G C12G C13G | 1.07
38 | U7G U8A G9U C13A | 1.08
39 | U7G U8A G9U C13G | 1.06
40 | U7G U8A G9U C13U | 1.3
41 | U7G U8A G9U U10C U11A C12A C13U | 1.09
42 | U7G U8A G9U U10C U11A C12A C13G | 1.06
43 | U7G U8A G9U U10C U11A C12A C13A | 1.14
44 | U7G U8A G9U U10G U11C C12A C13G | 1.05
45 | U7G U8A G9U U10G U11C C12A C13A | 1.05
46 | U7G U8A G9U U10G U11C C12A C13U | 1.11
47 | U7G U8A G9U U10A C13U | 1.02
48 | U7G U8A G9U U10A C13A | 1.06

Row | Variant | aptazyme ON/OFF ratio
49 | U7G U8A G9U U10A C13G | 1.03
50 | U7G U8A G9U U10G U11A | 1.05
51 | U7G U8A G9U U10G U11G | 1.11
52 | U7G U8A G9U U10G U11C | 1.04
53 | U7G U8A G9U U10A C12A | 1.05
54 | U7G U8A G9U U10A C12G | 1.06
55 | U7G U8A G9U U10A C12U | 1.03
56 | U7G U8A G9U U11A C12A C13U | 1.15
57 | U7G U8A G9U U11A C12A C13A | 1.16
58 | U7G U8A G9U U11A C12A C13G | 1.11
59 | U7G U8A G9U C12U | 1.18
60 | U7G U8A G9U C12A | 1.06
61 | U7G U8A G9U C12G | 1.1
62 | U7G U8A G9U U10A U11G C13A | 1.09
63 | U7G U8A G9U U10A U11G C13U | 1.09
64 | U7G U8A G9U U10A U11G C13G | 1.03
65 | U7G U8A G9U U10C U11C C12G C13G | 1.06
66 | U7G U8A G9U U10C U11C C12G C13A | 1.09
67 | U7G U8A G9U U10C U11C C12G C13U | 1.06
68 | U7G U8A G9U U11C C12G | 1.11
69 | U7G U8A G9U U11C C12A | 1.16
70 | U7G U8A G9U U11C C12U | 1.19
71 | U7G U8A G9U U10G U11G C12A C13U | 1.25
72 | U7G U8A G9U U10G U11G C12A C13G | 1.09

Row | Variant | aptazyme ON/OFF ratio
73 | U7G U8A G9U U10G U11G C12A C13A | 1.07
74 | U7G U8A G9U U10C U11A C12G | 1.13
75 | U7G U8A G9U U10C U11A C12U | 1.11
76 | U7G U8A G9U U10C U11A C12A | 1.12
77 | U7G U8A G9U U11G C12U C13U | 1.15
78 | U7G U8A G9U U11G C12U C13A | 1.1
79 | U7G U8A G9U U11G C12U C13G | 1.04
80 | U7G U8A G9U U10G U11A C12G C13U | 1.12
81 | U7G U8A G9U U10G U11A C12G C13A | 1.03
82 | U7G U8A G9U U10G U11A C12G C13G | 1.05
83 | U7G U8A U10A U11A C12U | 1.12
84 | U7G U8A U10A U11A C12A | 1.08
85 | U7G U8A U10A U11A C12G | 1.14
86 | U7G U8A G9U U11C C12A C13G | 1.07
87 | U7G U8A G9U U11C C12A C13U | 1.16
88 | U7G U8A G9U U11C C12A C13A | 1.1
89 | U7G U8A G9U U10C U11A | 1.41
90 | U7G U8A G9U U10C U11G | 1.24
91 | U7G U8A G9U U10C U11C | 1.06
92 | U7G U8A G9C U11G C12U | 1.14
93 | U7G U8A U10A C12A C13U | 1.08
94 | U7G U8A U10A C12A C13A | 1.33
95 | U7G U8A U10A C12A C13G | 1.3
96 | U7G U8A G9U C12G C13A | 1.11

Row | Variant | aptazyme ON/OFF ratio
97 | U7G U8A G9U C12G C13U | 1.17
98 | U7G U8A G9U C12G C13G | 1.07
99 | U7G U8A G9U U11C C13G | 1.05
100 | U7G U8A G9U U11C C13U | 1.09
101 | U7G U8A G9U U11C C13A | 1.1
102 | U7G U8A G9U U10A U11A C12A C13G | 1.08
103 | U7G U8A G9U U10A U11A C12A C13U | 1.04
104 | U7G U8A G9U U10A U11A C12A C13A | 1.13
105 | U7G U8A U10A C13U | 1.25
106 | U7G U8A U10A C13G | 1.44
107 | U7G U8A U10A C13A | 1.2
108 | U7G U8A G9U U10G U11C C12G C13A | 1.09
109 | U7G U8A G9U U10G U11C C12G C13G | 1.03
110 | U7G U8A G9U U10G U11C C12G C13U | 1.21
111 | U7G U8A G9U U10G C12U C13U | 1.13
112 | U7G U8A G9U U10G C12U C13G | 1.03
113 | U7G U8A G9U U10G C12U C13A | 1.05
114 | U7G U8A G9U U10C C12A C13G | 1.12
115 | U7G U8A G9U U10C C12A C13U | 1.15
116 | U7G U8A G9U U10C C12A C13A | 1.12
117 | U7G U8A G9U U10G U11G C13U | 1.18
118 | U7G U8A G9U U10G U11G C13G | 1.17
119 | U7G U8A G9U U10G U11G C13A | 1.3
120 | U7G U8A G9U U10C U11C C12U C13U | 1.06

Row | Variant | aptazyme ON/OFF ratio
121 | U7G U8A G9U U10C U11C C12U C13A | 1.03
122 | U7G U8A G9U U10C U11C C12U C13G | 1.06
123 | U7G U8A G9U U10G C13A | 1.35
124 | U7G U8A G9U U10G C13U | 1.21
125 | U7G U8A G9U U10G C13G | 1.19
126 | U7G U8A G9U U10G U11C C12U | 1.05
127 | U7G U8A G9U U10G U11C C12A | 1.14
128 | U7G U8A G9U U10G U11C C12G | 1.1
129 | U7G U8A U10A U11A C12A C13U | 1.08
130 | U7G U8A U10A U11A C12A C13A | 1.21
131 | U7G U8A U10A U11A C12A C13G | 1.18
132 | U7G U8A U10A U11C C12U C13G | 1.23
133 | U7G U8A U10A U11C C12U C13A | 1.18
134 | U7G U8A U10A U11C C12U C13U | 1.19
135 | U7G U8A U10A U11G C13A | 1.23
136 | U7G U8A U10A U11G C13G | 1.36
137 | U7G U8A U10A U11G C13U | 1.38
138 | U7G U8A U10A C12U | 1.18
139 | U7G U8A U10A C12G | 1.3
140 | U7G U8A U10A C12A | 1.26
141 | U7G U8A G9U U10G U11C C13A | 1.06
142 | U7G U8A G9U U10G U11C C13G | 1.04
143 | U7G U8A G9U U10G U11C C13U | 1.06
144 | U7G U8A G9U U10A U11C C12G C13U | 1.05

Row | Variant | aptazyme ON/OFF ratio
145 | U7G U8A G9U U10A U11C C12G C13A | 1.06
146 | U7G U8A G9U U10A U11C C12G C13G | 1.05
147 | U7G U8A G9U U10G U11A C12G | 1.09
148 | U7G U8A G9U U10G U11A C12A | 1.09
149 | U7G U8A G9U U10G U11A C12U | 1.04
150 | U7G U8A G9U U10A U11A C12U C13A | 1.07
151 | U7G U8A G9U U10A U11A C12U C13G | 1.07
152 | U7G U8A G9U U10A U11A C12U C13U | 1.06
153 | U7G U8A G9U U10A U11A | 1.46
154 | U7G U8A G9U U10A U11C | 1.03
155 | U7G U8A G9U U10A U11G | 1.09
156 | U7G U8A G9U U10A U11A C12G C13U | 1.06
157 | U7G U8A G9U U10A U11A C12G C13A | 1.05
158 | U7G U8A G9U U10A U11A C12G C13G | 1.09
159 | U7G U8A U10A U11A C13A | 1.2
160 | U7G U8A U10A U11A C13U | 1.21
161 | U7G U8A U10A U11A C13G | 1.15
162 | U7G U8A U10A U11C C12G | 1.26
163 | U7G U8A U10A U11C C12A | 1.31
164 | U7G U8A U10A U11C C12U | 1.05
165 | U7G U8A G9U U11A C12G C13A | 1.06
166 | U7G U8A G9U U11A C12G C13U | 1.04
167 | U7G U8A G9U U11A C12G C13G | 1.06

Source: the RNAGym collection of RNA variant scans (doi:10.1021/acssynbio.7b00057)
